Reference: article doi:10.1101/2021.04.27.441644 (bioRxiv, 2021)
Blank lines part the entries; values can stand above or below the binder they belong to.

Target: filamentous actin (F-actin) (rabbit, UniProt P68135 1-377)
Test: co-sedimentation

Kd: 20 µM
B1: CLIP-170 CG2-S3 fragment (H1 203-350) (domain or fragment)
chain: GSIKKGERELKIGDRVLVGGTKAGVVRFLGETDFAKGEWCGVELDEPLGKNDGAVAGTRYFQCQPKYGLFAPVHKVTKIGFPSTTPAKAKANAVRRVMATTSASLKRSPSASSLSSMSSVASSVSSRPSRTGLLTETSSRYARKISGT

Kd: ~90 µM
B2: CLIP-170 CG2 fragment (H1 206-288) (domain or fragment)
chain: KKGERELKIGDRVLVGGTKAGVVRFLGETDFAKGEWCGVELDEPLGKNDGAVAGTRYFQCQPKYGLFAPVHKVTKIGFPSTTP

Kd: ~10 µM
B3: CLIP-170 S2-CG2-S3 fragment (H1 156-350) (domain or fragment)
chain: MVSSSPSTPSNIPQKPSQPAAKEPSATPPISNLTKTASESISNLSEAGSIKKGERELKIGDRVLVGGTKAGVVRFLGETDFAKGEWCGVELDEPLGKNDGAVAGTRYFQCQPKYGLFAPVHKVTKIGFPSTTPAKAKANAVRRVMATTSASLKRSPSASSLSSMSSVASSVSSRPSRTGLLTETSSRYARKISGT
